{"source": "paper doi:10.1101/2025.02.27.640520", "target": "DeCLIC (Desulfofustis deltaproteobacterium)", "assay": "cryo-EM structure"}
{"substance": "DeCLIC (natural protein)", "values": [{"measurement": "stoichiometry N", "value": 5}]}
